Target: PA63 ligand (truncated 63 kDa portion of anthrax protective antigen), reagent conjugated with FITC (Bacillus anthracis, UniProt P13423 197-764)
Experiment: flow cytometry, FITC-conjugated PA63 on cell lines expressing ANTXR1 and ANTXR2

B1: ANTXR1 (anthrax toxin receptor 1) (receptor)
chain: not shown
notes: whole, on cells
binding result: binds
